Assays:
[1] = biological target: X-ray repair cross-complementing protein 5 (human) (UniProt P13010); assay: co-IP from A549 WT lysate, LC-MS/MS, peak area against isotype IP
Histone H2A.Z (human) = Histone H2A.Z (human) (UniProt P0C0S5); assay: as above
[2] = biological target: DNA topoisomerase 2-beta (human) (UniProt Q02880); assay: as above
[3] = biological target: DNA-dependent protein kinase catalytic subunit (DNA-PK) (human) (UniProt P78527); assay: as above
[4] = biological target: Core histone macro-H2A.1 (human) (UniProt O75367); assay: as above
Histone H3.1 (human) [5] = biological target: Histone H3.1 (human) (UniProt P68431); assay: as above
[6] = biological target: Sister chromatid cohesion protein PDS5 homolog B (human) (UniProt Q9NTI5); assay: as above
[7] = biological target: Poly [ADP-ribose] polymerase 1 (human) (UniProt P09874); assay: as above
DNA ligase 3 (human) = DNA ligase 3 (human) (UniProt P49916); assay: as above
[8] = biological target: X-ray repair cross-complementing protein 6 (human) (UniProt P12956); assay: as above
[9] = biological target: DNA topoisomerase 2-alpha (human) (UniProt P11388); assay: as above
[10] = biological target: Werner syndrome ATP-dependent helicase (human) (UniProt Q14191); assay: as above
[11] = biological target: DNA mismatch repair protein Msh2 (human) (UniProt P43246); assay: as above
[12] = biological target: Poly [ADP-ribose] polymerase 2 (human) (UniProt Q9UGN5); assay: as above
[13] = biological target: Replication protein A 70 kDa DNA-binding subunit (human) (UniProt P27694); assay: as above
[14] = biological target: FACT complex subunit SPT16 (human) (UniProt Q9Y5B9); assay: as above
[15] = biological target: DNA-directed RNA polymerase I subunit RPA1 (human) (UniProt O95602); assay: as above
[16] = biological target: Core histone macro-H2A.1 (human) (UniProt O75367); assay: co-IP from CTC41.5E lysate, LC-MS/MS, peak area against isotype IP
Histone H3.1 (human) [17] = biological target: Histone H3.1 (human) (UniProt P68431); assay: as above
[18] = biological target: DNA topoisomerase 2-alpha (human) (UniProt P11388); assay: as above
[19] = biological target: DNA mismatch repair protein Msh6 (human) (UniProt P52701); assay: as above
[20] = biological target: T1, native human NRP-1 on the cell surface (human, UniProt O14786 22-923); assay: flow cytometry, MDA-MB-231 cells, 10 ug/ml, +heparinase
T1 construct: whole, on cells; endogenous protein; isoform and glycosaminoglycan state on the cells not defined; also called native NRP-1 on MDA-MB-231 cells; native form of NRP-1 protein on the CTCs cell surface

[21] = biological target: T1, native human NRP-1 on the cell surface; assay: flow cytometry, MDA-MB-231 cells, 10 ug/ml, -heparinase
[22] = biological target: T2, recombinant murine NRP-1 (5994-N1-050, Bio-Techne) (murine, UniProt P97333 22-856); assay: ELISA, antibody 10 µg/ml, 1 µg immobilised murine NRP-1
T2 construct: extracellular domain; bought protein; also called mouse recombinant NRP-1

[23] = biological target: T3, recombinant human NRP-1 (3870-N1-025, Bio-Techne) (human, UniProt O14786 22-856); assay: ELISA, antibody 10 µg/ml, 1 µg immobilised human NRP-1
T3 construct: extracellular domain; bought protein; also called human recombinant NRP-1

NRP-1 peptide (Npep) = biological target: T4, NRP-1 peptide (Npep); assay: ELISA, antibody 10 µg/ml, 2 µg immobilised Npep
T4 construct: also called synthetic peptide Npep
T4 peptide: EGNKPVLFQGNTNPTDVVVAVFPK

[24] = biological target: T1, native human NRP-1 on the cell surface; assay: flow cytometry, MDA-MB-231 cells, 40 ug/ml, +chondroitinase
Description: (§1) Chondroitinase (C2905, Sigma) was reconstituted in a 0.01% BSA aqueous solution. The MDA-MB-231 cells were treated with chondroitinase (1 U/ml) for 2 hours at 37° C. The cells were detached using cell dissociation solution non-enzymatic (C5914, Sigma). 300,000 cells per condition were washed with 2% FBS in PBS and then incubated with different antibodies of interest or their respective isotype controls at 40 μg/ml for 30 min at 4° C. After wash, an Alexa 488-conjugated anti-human immunoglobulin antibody (20022-1, Biotium) was added at 10 μg/ml for 30 min at 4° C. After a final wash, fluorescence, size and granularity of cells were measured by the LSR Fortessa cytometer (BD Biosciences).

[25] = biological target: T1, native human NRP-1 on the cell surface; assay: flow cytometry, MDA-MB-231 cells, 40 ug/ml, with against without chondroitinase
Description: as §1

[26] = biological target: T1, native human NRP-1 on the cell surface; assay: flow cytometry, MDA-MB-231 cells, 40 ug/ml, -chondroitinase
Description: as §1

Ratio Area V4/IgG4 [1]: 2.3
Ratio Area V4/IgG4 (Histone H2A.Z (human)): 22
Ratio Area V4/IgG4 [2]: 369
Ratio Area V4/IgG4 [3]: 6.06
Ratio Area V4/IgG4 [4]: 1130
Ratio Area V4/IgG4 (Histone H3.1 (human) [5]): 82.5
Ratio Area V4/IgG4 [6]: 358
Ratio Area V4/IgG4 [7]: 546
Ratio Area V4/IgG4 (DNA ligase 3 (human)): 78.8
Ratio Area V4/IgG4 [8]: 1.9
Ratio Area V4/IgG4 [9]: 1440
Ratio Area V4/IgG4 [10]: 540
Ratio Area V4/IgG4 [11]: 1
Ratio Area V4/IgG4 [12]: 259
Ratio Area V4/IgG4 [13]: 2
Ratio Area V4/IgG4 [14]: 6030
Ratio Area V4/IgG4 [15]: 3210
Ratio Area V4/IgG4 [16]: 8780
Ratio Area V4/IgG4 (Histone H3.1 (human) [17]): 304
Ratio Area V4/IgG4 [18]: 538
Ratio Area V4/IgG4 [19]: 813
percentage of binding [20]: 10.1%
percentage of binding [21]: 12.4%
Absorbance [22]: 0.986
Absorbance [23]: 0.953
Absorbance (NRP-1 peptide (Npep)): 0.855
percentage of binding [24]: 86.4%
delta (% of control) [25]: -6.8%
percentage of binding [26]: 93.2%
B1: variant 4 of a-NRP1_LEP n° 1 (antibody, V domains shown)
VH: EVQLVESGGGLVQPGGSLRLSCAASGFTFSSFGMHWVRQAPGKGLEWVAYISSGSSTIHYADSVKGRFTISRDNAKNSLYLQMNSLRAEDTAMYYCARRHYGSSRYWYFDVWGQGTTVTVSS
VL: EIVLTQSPATLSLSPGERATLSCRASQSVKSYLAWYQQKPGQAPRLLIYYASSRATGIPARFSGSGSGTDFTLTISSLEPEDFAVYYCQQYSESPYTFGQGTKLEIK
notes: humanized variant of 21B10; isotype control hIgG4; also called variant 4 a-NRP1_LEP; variant n°4 a-NRP1_LEP

From patent publication US20260226176A1 (THERANOVIR, published 2026)
